Source: the supplement of paper PMC7877785
± gives the uncertainty stated by the source.

Assay: self-splicing fitness, log relative to wild type (ln ratio); higher = more splicing; Tetrahymena group I intron in knt gene, E. coli kanamycin selection, DiMSum; sequences stand for … in CUCUCU…GGAGGGAAAAGUUAUCAGGCAUGCACCUGGUAGCUAGUCUUUAAACCAAUAGAUUGCAUCGGUUUAAAAGGCAAGACCGUCAAAUUGCGGGAAAGGGGUCAACAGCCGUUCAGUACCAAGUCUCAGGGGAAACUUUGAGAUGGCCUUGCAAAGGGUAUGGUAAUAAGCUGACGGACAUGGUCCUAACCACGCAGCCAAGUCCUAAGUCAACAGAUCUUCUGUUGAUAUGGAUGCAGUUCACAGACUAAAUGUCGGUCGGGGAAGAUGUAUUCUUCUCAUAAGAUAUAGUCGGACCUCUCCUUAAUGGGAGCUAGCGGAUGAAGUGAUGCAACACUGGAGCCGCUGGGAACUAAUUUGUAUGCGAAAGUAUAUUGAUUAGUUUUGGAGUACUCGUGGUCG
Method in brief: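 A randomised library covering all eight P1ex-region intron nucleotides was built with the intron in the knt kanamycin-resistance gene on pET-22b(+) and held in E. coli BL21(DE3). Cells were grown overnight at 37°C or 30°C on LB agar, with or without 25 μg/mL kanamycin, plus 100 μg/mL carbenicillin, 50 μM IPTG and 0.2% rhamnose, and pooled colonies were amplicon-sequenced on an Illumina HiSeq 2500. DiMSum fitness is the error-weighted combination of wild-type-normalised replicate fold changes, kanamycin versus none.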

| Sequence | self-splicing fitness (ln) (30 °C) | self-splicing fitness (ln) (37 °C) |
| --- | --- | --- |
| CAAUAGCAAUAUUACGUCCU | -3.78 ± 0.42 | -2.4 ± 0.28 |
| CAAUAGCAAUAUUACGUCGC | -4.1 ± 0.36 | -2.56 ± 0.29 |
| CAAUAGCAAUAUUACGUCGG | -0.177 ± 0.069 | 0.202 ± 0.083 |
| CAAUAGCAAUAUUACGUCUA | -2.78 ± 0.19 | -2.52 ± 0.21 |
| CAAUAGCAAUAUUACGUGGA | -3.29 ± 0.25 | -2.92 ± 0.22 |
| CAAUAGCAAUAUUACGUGGG | -3.7 ± 0.15 | -3.49 ± 0.21 |
| CAAUAGCAAUAUUACGUGUU | -4.08 ± 0.16 | -2.95 ± 0.17 |
| CAAUAGCAAUAUUACGUUCG | -0.45 ± 0.057 | 0.556 ± 0.081 |
| CACAAGCAAUAUUACGAAAG | -0.721 ± 0.08 | 0.0107 ± 0.1 |
| CACAAGCAAUAUUACGAAAU | -2.91 ± 0.19 | -3.24 ± 0.24 |
| CACAAGCAAUAUUACGACAA | -3.12 ± 0.2 | -2.04 ± 0.17 |
| CACAAGCAAUAUUACGACCC | -2.15 ± 0.4 | -0.814 ± 0.24 |
| CACAAGCAAUAUUACGACCG | 0.562 ± 0.17 | 0.582 ± 0.2 |
| CACAAGCAAUAUUACGACGA | -0.927 ± 0.11 | -0.995 ± 0.12 |
| CACAAGCAAUAUUACGACGC | -2.86 ± 0.32 | -1.17 ± 0.18 |
| CACAAGCAAUAUUACGAUCG | -0.581 ± 0.069 | 0.875 ± 0.091 |
| CACAAGCAAUAUUACGAUGA | -2.99 ± 0.11 | -1.21 ± 0.09 |
| CACAAGCAAUAUUACGAUGG | -0.756 ± 0.045 | 0.369 ± 0.07 |
| CACAAGCAAUAUUACGCAAG | -1.54 ± 0.087 | -0.814 ± 0.1 |
| CACAAGCAAUAUUACGCGAC | -2.93 ± 0.15 | -3.22 ± 0.27 |
| CACAAGCAAUAUUACGCUCA | -1.45 ± 0.093 | -0.209 ± 0.097 |

| Sequence | self-splicing fitness (ln) (30 °C) | self-splicing fitness (ln) (37 °C) |
| --- | --- | --- |
| CACAAGCAAUAUUACGGACA | -2.34 ± 0.12 | -2.29 ± 0.12 |
| CACAAGCAAUAUUACGGACC | -3.41 ± 0.24 | -1.73 ± 0.2 |
| CACAAGCAAUAUUACGGAUA | -1.79 ± 0.15 | -2.4 ± 0.17 |
| CACAAGCAAUAUUACGGCAC | -2.95 ± 0.19 | -1.56 ± 0.17 |
| CACAAGCAAUAUUACGGCCA | -1.1 ± 0.13 | -0.928 ± 0.16 |
| CACAAGCAAUAUUACGGGCU | -4.15 ± 0.24 | -2.29 ± 0.17 |
| CACAAGCAAUAUUACGUACG | -0.467 ± 0.063 | 0.449 ± 0.083 |
| CACAAGCAAUAUUACGUACU | -3.09 ± 0.12 | -0.878 ± 0.1 |
| CACAAGCAAUAUUACGUAUG | -2.55 ± 0.095 | -1.08 ± 0.085 |
| CACAAGCAAUAUUACGUGAG | -4.48 ± 0.15 | -3.21 ± 0.19 |
| CACAAGCAAUAUUACGUGUG | -3.65 ± 0.12 | -2.69 ± 0.12 |
| CACAAGCAAUAUUACGUUUU | -4.18 ± 0.15 | -3.45 ± 0.22 |
| CACCAGCAAUAUUACGAAGA | -3.26 ± 0.21 | -1.81 ± 0.2 |
| CACCAGCAAUAUUACGAGCU | -3.87 ± 0.16 | -3.55 ± 0.27 |
| CACCAGCAAUAUUACGCACA | -1.23 ± 0.16 | -0.504 ± 0.14 |
| CACCAGCAAUAUUACGCAGU | -3.61 ± 0.19 | -2.09 ± 0.23 |
| CACCAGCAAUAUUACGCCCU | -4.12 ± 0.26 | -0.642 ± 0.11 |
| CACCAGCAAUAUUACGCCUU | -3.62 ± 0.14 | -1.72 ± 0.12 |
| CACCAGCAAUAUUACGCGAU | -2.55 ± 0.14 | -2.61 ± 0.21 |
| CACCAGCAAUAUUACGCGUC | -2.87 ± 0.15 | -0.883 ± 0.12 |
| CACCAGCAAUAUUACGCUGC | -4.19 ± 0.22 | -2 ± 0.16 |
